Data on two molecules can be found in doi:10.1101/2020.03.10.985002.

Data set [1] has as its target T1, HY5 (UniProt O24646 1-168).
T1 sequence: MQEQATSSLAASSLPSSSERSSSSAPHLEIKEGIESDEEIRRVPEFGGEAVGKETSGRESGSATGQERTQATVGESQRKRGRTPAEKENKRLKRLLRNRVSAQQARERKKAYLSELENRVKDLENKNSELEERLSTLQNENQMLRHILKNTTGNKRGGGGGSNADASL
In words: competition.

Data set [2] addresses T1, HY5. In words: EMSA.

B1: G-box cold competitor (GbH5) (dsDNA)
DNA 1: GTTCTAGTGTATCAGACACGTGTCGACAAACTGGTGG
DNA 2: CCACCAGTTTGTCGACACGTGTCTGATACACTAGAA
In the case of B1, in the data set with HY5 [1], the binding result is recorded as “binds”.

B2: PAP8 promoter box probe (oP8Box) (dsDNA)
DNA 1: GGATACCAAAAATGACGCTCTTAATTATTTCC
DNA 2: GGAAATAATTAAGAGCGTCATTTTTGGTATCC
Regarding B2, the binding result in the data set with HY5 [2] was “binds”.
